# Measured values published in US20170002084A1 (VET THERAPEUTICS, published 2017).
# Residue numbers refer to the chain shown, from its start.
# T1: Canine CD20 (canine, UniProt Q3C2E2 1-297)
# T1 chain: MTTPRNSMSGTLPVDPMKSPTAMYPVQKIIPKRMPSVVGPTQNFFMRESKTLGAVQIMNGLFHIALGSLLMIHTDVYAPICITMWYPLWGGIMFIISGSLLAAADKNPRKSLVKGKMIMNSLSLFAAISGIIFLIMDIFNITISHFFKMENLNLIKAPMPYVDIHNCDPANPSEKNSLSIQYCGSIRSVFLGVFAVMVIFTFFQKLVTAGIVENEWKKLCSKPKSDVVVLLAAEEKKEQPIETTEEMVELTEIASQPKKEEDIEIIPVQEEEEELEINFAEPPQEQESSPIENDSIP
# T2: Feline CD20 (feline)
# T2 construct: also called recombinant feline CD20
# T2 chain: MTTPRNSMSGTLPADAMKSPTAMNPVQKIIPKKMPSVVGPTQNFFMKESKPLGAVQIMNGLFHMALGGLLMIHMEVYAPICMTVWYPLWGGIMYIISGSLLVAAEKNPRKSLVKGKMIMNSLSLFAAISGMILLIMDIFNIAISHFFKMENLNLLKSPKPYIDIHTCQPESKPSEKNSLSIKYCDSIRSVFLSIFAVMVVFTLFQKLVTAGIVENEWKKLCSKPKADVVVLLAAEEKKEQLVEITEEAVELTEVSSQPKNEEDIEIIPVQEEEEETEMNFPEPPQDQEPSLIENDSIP
# B1: anti-canine CD20 antibody CD20-2 (VET305) (antibody)
# heavy: QVQLQQSRAELVRPGASVTLSCKPSGYTFTDYEVHWVKQTPVHGLEWIGAIDPETGGTADNQKFKGKAILTADKSSSTAYMELRSLTSEDSAVYYCTNFVDVWGTGTTVTVSSASTTAPSVFPLAPSCGSQSGSTVALACLVSGYFPEPVTVSWNSGSLTSGVHTFPSVLQSSGLYSLSSMVTVPSSRWPSETFTCNVAHPASKTKVDKPVPKRENGRVPRPPDCPKCPAPEMLGGPSVFIFPPKPKDTLLIARTPEVTCVVVDLDPEDPEVQISWFVDGKQMQTAKTQPREEQFNGTYRVVSVLPIGHQDWLKGKQFTCKVNNKALPSPIERTISKARGQAHQPSVYVLPPSREELSKNTVSLTCLIKDFFPPDIDVEWQSNGQQEPESKYRTTPPQLDEDGSYFLYSKLSVDKSRWQRGDTFICAVMHEALHNHYTQKSLSHSPGK
# light: DVVMSQSPSSLAVSVGEKVTMSCKSSQSLLYSGNQKNYLAWYQQKPGQSPRLLIYWASTRESGVPDRFTGSGSGTDFTLTISSVKAEDLAVFYCQQYYNYPLTFGGGTHLTVLGQPKASPSVTLFPPSSEELGANKATLVCLISDFYPSGVTVAWKADGSPITQGVETTKPSKQSNNKYAASSYLSLTPDKWKSHSSFSCLVTHEGSTVEKKVAPAECS
# notes: also called Mab CD20-2
# B2: anti-canine CD20 antibody CD20-5 (VET308) (antibody, V domains shown)
# VH: QVQLKQSGAELVKPGASVKISCKASGYTFTDYYINWVKQRPGQGLEWIGKIGPRSGSIYYNEKFKGKATLTADKSSSTAYMQLRSLTSEDSAVYFCAVLKWGQGTLVTVSS
# VL: not shown
# notes: also called Mab CD20-5
# B3: anti-canine CD20 antibody CD20-6 (VET309) (antibody, V domains shown)
# VH: EIQLQQSGAELVRPGASVTLSCKASGYTFTDYEMHWVKQTPVHGLEWIGGIDPETGGTAYNQKFKGKAILTADKSSSTVYMELRSLTSEDSAVYYCTRDYGTSGYWGQGTLVTVSS
# VL: DVVVTQTPLSLPVSFGDQVSISCRSSQSLANSYGNTYLSWYLHKPGQSPQLLIYGISNRFSGVPDRFSGSGSGTDFTLKISRVEAEDLGVYFCSQSTHVPWTFGGGTHLTVLG
# notes: also called Mab CD20-6
# B4: anti-canine CD20 antibody CD20-1 (antibody, V domains shown)
# VH: EIQLQQSGAELVKPGASVKISCKASGYTFTDYYINWVKQRPGQGLEWIGKIGPGSGRTYYNEKFKGKATLTADKSSSTAYIQISSLTSEDSAVYFCAVLSWGQGTTLTVSS
# VL: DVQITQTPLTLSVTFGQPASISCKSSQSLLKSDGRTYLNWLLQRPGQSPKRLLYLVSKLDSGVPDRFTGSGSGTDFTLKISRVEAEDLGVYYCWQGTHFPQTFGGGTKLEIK
# notes: called 'recombinant anti-canine CD20 antibody'; also called Mab CD20-1
# B5: VET 135 × VET 260 (antibody)
# heavy: B1 heavy
# light: B1 light with G106A, H109K, T111E, V112L, L113K
# notes: CD20-2 variable domains on canine constant domains; light chain differs from VET305 (which has the FR4T light chain); also called VET135 x VET260
# B6: VET 124 × VET 237 (antibody, V domains shown)
# VH: EVQLQQSVAELVRPGASVTLSCKASGYTFTDYEMHWVKQTPVHGLEWIGEIDPETGGTAYNQKFKGKAILTADKSSSTAYMELRSLTSEDSAVYYCTEYAMDYWGQGTLVTVSS
# VL: not shown
# notes: also called VET124 x VET237
# B7: VET 135 × VET 257 (antibody, V domains shown)
# VH: B4 VH
# VL: DVVMSQSPSSLAVSVGEKVTMSCKSSQSLLYSGNQKNYLAWYQQKPGQSPRLLIYWASTRESGVPDRFTGSGSGTDFTLTISSVKAEDLAVFYCQQYYNYPLTFGAGTKLELKG
# notes: Mixed pairing: CD20-2 light chain with CD20-1 heavy chain; also called VET135 x VET257
# B8: VET 133 × VET 257 (antibody, V domains shown)
# VH: B4 VH
# VL: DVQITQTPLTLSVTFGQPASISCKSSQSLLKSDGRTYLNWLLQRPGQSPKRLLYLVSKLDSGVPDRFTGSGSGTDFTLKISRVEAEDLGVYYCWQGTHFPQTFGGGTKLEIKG
# notes: Light chain vector VET133 co-transfected with heavy chain vector VET257 in 293F cells; mouse variable domains on canine constant domains; also called VET133 x VET257
# B9: VET 133 × VET 260 (antibody, V domains shown)
# VH: QVQLQQSRAELVRPGASVTLSCKPSGYTFTDYEVHWVKQTPVHGLEWIGAIDPETGGTADNQKFKGKAILTADKSSSTAYMELRSLTSEDSAVYYCTNFVDVWGTGTTVTVSS
# VL: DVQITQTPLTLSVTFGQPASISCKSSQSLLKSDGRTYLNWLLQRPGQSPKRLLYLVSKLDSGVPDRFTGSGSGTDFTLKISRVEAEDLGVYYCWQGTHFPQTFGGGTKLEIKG
# notes: Mixed pairing: CD20-1 light chain with CD20-2 heavy chain; also called VET133 x VET260
# Molecular target: T1, Canine CD20
# Test: cell-based or functional assay
row,Reduction (%) of cell proliferation of lymphoma cells [%],Binder
1,55,B1
2,60.1,B2
3,27.6,B3

# Molecular target: T1, Canine CD20
# Test: FACS on CHO cells expressing recombinant canine CD20
row,Kd [nM],Binder
1,1,B4

# Molecular target: T1, Canine CD20
# Test: as above
# Remark: another data set of the same source
# Description: The antibody variants of the present invention are compared for their binding affinity to canine CD20. Binding affinity is assessed by measuring binding to the recombinant canine CD20 expressed in CHO cells by FACS analysis as described above.
row,Kd [nM],Binder
1,8.85,B1
2,1.21,B2
3,63.4,B3

# Molecular target: T1, Canine CD20
# Test: FACS on canine PBMC, 2 µg antibody, FITC anti-dog IgG
# Description: In the present example, the antibody variants are incubated with the CD20 positive cells and the amount of bound antibody is assessed following incubation with a fluorescent-labeled reporter reagent. The reporter is thereafter measured by FACS.
# Briefly, for each assay, one million cells of Peripheral Blood Mononuclear Cell (PBMC) isolated from whole blood from a normal dog by standard techniques were resuspended in FACS buffer (PBS+2% FBS). Two μg of the primary antibody are added to the cells and the samples were incubated at 4° C. for 1 h. The primary antibody is provided as supernatants from transfected cells with recombinant antibody constructs or from purified antibody preparation. The mouse anti-dog CD21 mAb (Serotec) recognizing B-lymphocytes is added to the cells as a control to estimate the percentage of B-lymphocytes in a given sample. One ml of FACS buffer are added and cells are spun down for 3 min at 800×g in Eppendorf microcentrifuge. The cells are washed with 1 mL FACS buffer and spun down again. The secondary antibodies such as fluorescein-isothiocynate (FITC) conjugated goat anti-mouse kappa (mFITC, Jackson ImmunoResearch), or the FITC-conjugated goat anti-dog IgG (H+L) (dFITC, Bethyl Laboratories) are added in 100 μL of FACS buffer supplemented with 1% BSA to appropriate tubes and the tubes were incubated at 4° C. for 30 minutes. The wash steps are repeated. The cells are then resuspended in 500 μL FACS buffer and transferred into 12×75 mm polystyrene test tubes. The cells are analyzed by FACS with a FacScan cytometer using the CellQuest software (Becton-Dickenson). Analysis gates are set on the live lymphocyte population based on typical forward and side scatter characteristics. Several controls are utilized to determine the background fluorescence: (i) one tube of cells is incubated with the FITC-conjugated secondary antibody without the primary antibody, and (ii) one tube of cells is incubated with PBS only.
# The overall percentage of B-cell subset in this sample is estimated to be approximately 12% based on the binding of the anti-dog CD21 mab control. The results of Table 3 evidence effective binding of the antibody variants to lymphocytes.
% Lymphocytes [%],Mean Fluorescence,Binder
12.7,2660,B5
13,2660,B6
8.33,2500,B7
12,3170,B8
13.7,2910,B9

# Molecular target: T2, Feline CD20
# Test: FACS on mammalian cells expressing recombinant feline CD20
# Description: (§1) In the present example, the antibody variants (2.5 μg/mL) are incubated with mammalian cells expressing the recombinant feline CD20 or canine CD20 or control cells. The amount of bound antibody is assessed by detection with a fluorescent-labeled reporter antibody reagent. Several controls are utilized to determine the background fluorescence: (i) CD20 expressing cells are incubated with the conjugated secondary antibody with an isotype antibody, and (ii) Control cells are incubated with the anti-CD20 antibodies.
# (§2) The results reported as mean fluorescence units evidence effective binding of the antibodies CD20-2, CD20-5, and CD20-6 to the recombinant canine CD20 expressed in HEK cells. Only CD20-2 and CD20-5 antibodies bind feline CD20 expressed in mammalian cells.
row,binding result,Binder
1,no binding (tested: 2.5 µg/mL),B3

# Molecular target: T1, Canine CD20
# Test: FACS on HEK cells expressing recombinant canine CD20, antibody 2.5 µg/mL
# Description: as §1, §2
row,mean fluorescence units [mean fluorescence units],Binder
1,2340,B1
2,2770,B2
3,2110,B3

# Molecular target: T2, Feline CD20
# Test: FACS on mammalian cells expressing recombinant feline CD20, antibody 2.5 µg/mL
# Description: as §1, §2
row,mean fluorescence units [mean fluorescence units],Binder
1,2210,B1
2,2048,B2
3,60,B3
